Results from the DeepSol protein solubility set.

Test: soluble on expression in E. coli; label from the status in PepcDB or PDB records

| Sequence | soluble on expression in E. coli |
| --- | --- |
| MGSDKIHHHHHHMEPKYTSFDKSAKTCIRQQVITEDLSWAHYQNAGERLYYQNDTQHTLSMYLDGGYETHRTDIKADYGAPSKFCLMPQGCQSHWQLGQPQQFMHLYFSDEHLKKLAVRVFDKDPRQVRLPELTFVDNPRLEALFRHQVAGLNWQTSDNHLMMEQVTDTVLVTLLQSSGFNLSVGPIKGGLAPKVAKAIKEFIYCHSHRQIYLSELAEIAQLSEYHFCRMFKCQFAMTPQEYLLQVRIEKVKQSLSHSTQSLTDIALNNGFANQSHMGRYFKKLSGMSPGEYQKHHQGR | not soluble |
| MGSDKIHHHHHHMEQKICVIGFSGGQDSTTLAVWAKKRFKKVCLVGFDYAQKHSVELECAQKIASLLQLPYEIIPLDFLENITRSALFKNSNDLIGHSHAQNKDLPNSFVPNRNAIFITLLHSYAQKLGASNIALGVSQADFSGYPDCKEDFIKSIEHALNLGSNTAIKILTPLMFLNKAQEFQMAKDLGVLDLVIKETHTCYQGERKILHAYGYGCDKCPACQLRKKGFEEFQANKK | not soluble |
| MGSDKIHHHHHHMEQLLHYVWKHKIFPLHELQTTTGLPVEVIDTGLPNSDSGPDFFNAKLKIGGTLWVGNVEIHTASSDWFRHGHDRDIAYDSVILHIVTEIDCEIYRSNGEPVPQLRLPCPEQVKEHYDELCRADIHPPCYSILETLPKLTIHSWLTALQTERFDQKNRTITRRLQRCNQHWEDAFFITLARNFGFGLNGDAFETWANLLSFRAIDKHRDDLTQVEAFFFGQAGLLEGESADDYFSWMQKEFRYLQHKFELPPVMNPSLWRFLRLRPGNFPHVRLAQLASLYYRERSLFSRVMEAETLKDLKHIFAGHTSAYWEEHFMFGKSSPRREKSIGAGAKELIIINTVIPFLYAYGLHKADERLCERAASLLEELKAENNYVTRMWSGAGIPVQTAADSQALLQLQKEYCDKKKCLYCRFGYEYLRHK | not soluble |
| MGSDKIHHHHHHMEQRKRRLPPLKSLLFLESVVRNQSVTAAADELSITHSAVSKQLSQLEVWIGQPLFLEKRKGMIPTAEIGRVAAVLGNAFDEIQDALDELHPKRAAKPPVLRVIAPATLAMRWLIPKLGEFHTSAGETDVMVRPTHTPDNWLEMEFDIAIRRGGLIPPQFLPQSLFAETLSLVATARVAESYRMGQGDQLSQIGLIDVSTRHGELMNWLKLAGLPVAMARQATKLPHFYIALDAMFAGRGALVVPTYLIEDQLSRGELVELFPQSRIQGPSYQVFVNPASGAGNLAKGFVDWIKRAIPSVAQYAETR | not soluble |
| MGSDKIHHHHHHMERIEAGMSVMTLKKQTYRVIAVINQGQELLVRAHEPETADIEIIPVTTVVQVTEQNSTGDAAVALDTVTVVGERYVDDIVATLTTLRVGMAVLLQRESGNQYDDNAISVWTLQHAKLGYIARYQNQPYATLMDQGQRLYGIVTVLDQQKQHLELMLWRTTAVPSPIEALQIRQRLAKPRTNLGAVPTHSLQTPLGTIVMMCNGHPIKYQQVPLSPWLTPADELHVTKRYLLTPDWSQVPPDSLITCQVTAKADVVQRWQNEHISAAVLTNASSFYVVGISAQTKTGLNDNLVDDAAQPAVIYRVGQVSAHMQAGFMVSWAPFGDPRVQPALKLALHFSSQPLVPYHPVTPSRTNATFTQQELAALLVSALPNYQGGQRLEPSVTTITVEKLRQTLGDQTYHALANYQRHVQLVAGSTEGVNETLLQALIHAVTYHELTTMHYYQPTVGMVDQVIYPIQLFSTTTKDEDDAQLVGCLALYNYETFEIQQVPLTAIARIAIIADPEHPQTTPETESPDWLRIFLHGWNDDF | not soluble |
| MGSDKIHHHHHHMESFNEYHIDPKQFPFLKNFQDNWQVIRDEYTSFINNASNEELKFTYDVLGPKSQTIKTKGKSKYSAFGILFQGMFIEKYIQAHQIKYPDYGPDEASKKALVLREKYFTNLANVIKDVNLIEDDIIRNVYYGTFHPGLDIKLHVNYNPHTNRGYLGLIVPEGDVAMKICHDQLYWHEGKFLVLDHSYPHCPHNYTSYDRTVLVVDFFKPDKPRDEVIEFEKEQVTQRMQDNPYSLGVFGKSDKAKEEDFIKYGLAHQLEWDKALI | not soluble |
| MGSDKIHHHHHHMESKSAVQLYLELLKKTILFEIWLEYEAYLPASLHISKELEFEPVTVPLPLFIKQYAENHNLKIVKPNVSKSERHDGMDWPRAAHSMIGRERMNQLQEAMETVVRENIEGDFIETGVWRGGSCIFMNGFLQANNITDRNVWVADSFEGLPAPNLEQYPKDYGDYLHTFDYLRVSLEQVQENFKKYDLLNDQVKFLKGWFKDTLPTAPIAAIAIARLDGDMYESTMDGLVNLYDKVSKGGYIIIDDYGLPPCAEAVTDFRNHRNLKAPITKIDVFGVYWRKE | not soluble |
| MGSDKIHHHHHHMETAAELKTRLIAQAKAEGFVSVRLCRPWDVPEVPERLRAFLEAGYHGQMKWMAERINWRENPAALWPEARSVIMLAESYTPDEDPMAVVGLPDRAAISVYARGKDYHDLVKKRLKRLARWLIEEAPDEAQVKVFVDTAPVPEKALGQASGLGWQGKHTNLVSRDWGNWAFLGSIFTTLDLPVDAPEPDRCGSCRACLTACPTDAFPAPYQLDARRCISYLTIEHKGPIEEELRTKLGNRIYGCDDCLAACPWNKFAVEASDMRYAAREGTIAPPLAELSQLDDAAFRARFSGSPIKRIGRDRFVRNVLYAIGNSGDAGLHVFAQALCDDPDPTVAEAARWAAARLP | not soluble |
| MGSDKIHHHHHHMETIETVQRFLEHMAWYATPVPASAISFLAAGEYNENWRIRHEGRDEVLRVNHGSQLRFADQIGYEYAVLRAVHPSGVTPRALRVKSRPRHLSGGALLMEYLPGRPLDYRTDLEAAAHTFAAVHSVVVPRGCPLLRQPDPVADIAADGLRLIHRFPDHPRTDVRDALLRYHERVVRLGEDTRALFEGERQVIANTEVNSGNFLVHDGVARLVDWEKAVVTPRYQDLGHFLAPTTTLWKTDTVLDEADRRRFLAAYRDALTRLAGRETVADCHFDTTDTAEGVTHEAAFHTTAPDAPGGQPHGDMAPDVPDLDALAVRTDVLVRAVLLRGLAWCYMAWQEYATDRRPLAHPDTLRTIERYLAEVSWFLR | not soluble |
| MGSDKIHHHHHHMETLLKISGVDKSFPGVKALNNACLSVYAGRVMALMGENGAGKSTLMKVLTGIYSKDAGTIEYLNRSVNFNGPKASQEAGISIIHQELNLVGNLTIAENIFLGREFKTSWGAINWQKMHQEADKLLARLGVTHSSKQLCAELSIGEQQMVEIAKALSFESKVIIMDEPTDALTDTETEALFNVIRELKAENRGIVYISHRLKEIFQICDDVTVLRDGQFIGERVMAEITEDDLIEMMVGRRLDEQYPHLSQEKGECVLDVKHVSGSGIDDVSFKLHAGEIVGVSGLMGAGRTELGKLLYGALPKTAGKVRLKNQEIENRSPQDGLDNGIVYISEDRKGDGLVLGMSVKENMSLTSLDHFSQKGGIRHQAEKMAVDDFILMFNIKTPNRDQQVGLLSGGNQQKVAIARGLMTRPNVLILDEPTRGVDVGAKKEIYQLINEFKKEGLSILMISSDMPEVLGMSDRVLVMREGKISAEFSREEATQEKLLAAAIGK | not soluble |
| MGSDKIHHHHHHMETRRDERIGQLLQALKRSDKLHLKEAATLLGVSEMTIRRDLNHKSAPVVLLGGYIVLEPRSASHYLLSDQKSRLVEEKRRAAQLAAGLVQAHQTVFIDCGTTTPWIIEAIDNDLPFTAVCYSLNTFLALQDKPHCRAILSGGEFHASNAIFKPLDFHETLNNICPDIAFYSAAGVHTSKGATCFNLEELPVKHWAMTMAQCHVLVVDHSKFGKVRPARMGELSRFDTIISDRRPDEAFVAYAKAQQITLMY | not soluble |
| MGSDKIHHHHHHMEWIDRFIELLFYGEKEEAYKLKFDHFPRRLYKYEVIDEKRLLALKNNKIWFANPDKLNDPFDSCGVFFDKKVLCNYTNKKSIDEYIDGLKRNIKVCCFSEELNSMPMWAHYANNHTGICIEYDFSKLNYMSEFSKYIFPIRYETEKYDITKFLERIFKEEAEERMYLLFFLMQIKHVSWSYEKEWRIILKAYEDKNEGIVCPIKPEGIYLGLNCSEENKEKLKRIVVENIKCPIYEIEKTEGKLFEFKTKNVSEKNYK | not soluble |
| MGSDKIHHHHHHMEYEIVIGLEVHAELATKTKMYCGCTAEFGGQPNTHVCPVCMGLPGALPHINKRAVDYGIKAGLALNCSITHIGRMDRKHIFYPDNSRNYQITQDELPLCTNGYIEIELEDGSKKKIGVERIHIEEDAGKLLHTNAGTLVDFNRCGVPLAEIVSKPDMRSPREAVTYLEELKSILSCVGVSDCKMEEGSLRCDANISVMKKGAKEFGVRTEIKNMNSFKAVEKALNYEYERHIKAIESGEKLTQETRRWDDAKNETAPMRSKEEANDYRYFPEGDLVTLNIDDEWIESIRKTIPELPYQKRERFIKEFGIPKYDASVLTLTMSMADFFEKTAKISGDAKSASNWLMGDISKIMKENYVWIEDLKFTPEQLSELIKLINEGTVSNAIGKKVIIKMFETGKSPKNIIEEEGLIQNSNEDEILNIVKEVLSENEKSIEDYKNGKNRVVGFLIGLVMKKTKGKANPKIVNKLMIDELNKQ | not soluble |
| MGSDKIHHHHHHMFAERLERARKAAGLSMNALANEVGLSANAIKKYEHGTAMPSSSNLLKLAKALDVRTEYFFRPTKVKLEGVEYRKRASTPKKVLDRINGDVLEQAERWQELLELYPDSVKPIPEFTLPNELPEQITSIEQVEDLAIQMRHAWDLGLNPIHDMIDTLEAKGVMIITTDVETDKKFDGLAGKIGSTPVVVISTAQSGDRQRFTLAHELGHLVVHGRLVEALDEEKACNTFAGAFLLPTQTLIEHLGEKRRHIEPRELLMLKHEYGISMLAALFRAGQCGIITPATQKNLFMLFSKNGWRTEEPGKAYPHESTYLHKQLVYRALGEEYIGESKAAELLGMSVSSFHKERKLEVPIQSQLALEAKGAAASN | not soluble |
| MGSDKIHHHHHHMFDMFEKAVVFGLYSITPVHAGSGAELSVIDLPIQRERHTGFPVIWGQSLKGVLRSRFRQLELDEKIEVESQKWKWKEKTKEVLKEKADEFIKKVEERKRDPLLTEIVFGPATDGASEHAGAVSVGDAKILLFPVRSAKGVFAFVTSPIVIQRLKEDFELVSEIENDIELKQILSRFKVELSNNETIAGNALILNGENKVILEDIVLKVKSDSNVIENLVEVLKTLFGDNFFGKPIESIKERIAIVSDDVFKSFTRFSTEIVARVRIDAEKGTVARGGLWYEEFLPSDTLMYSLIAVGSPKKENLPKEVDNTQKIVNVLKVTFNNAFLQIGGDETVGKGFVKVRAGVLTGGHKGN | not soluble |
| MGSDKIHHHHHHMFDVCLFKKMNILYATCFLDVSGVTRLNYDILARLAGKNNIYVCETASDGRLTSKLENHFRDSFGEPFKLFRYPLQDRYRRFLEYLDSNAIDLVFNTHSLWVYEHIAKLKKDRSNLKVVDSLHVLEPYCFRGGYPDISANRYVHPFIDKSIVISEHLLSYIKRSYSVDPGKFIIIRNGVDTTRFKKDSSLKGIFRNELGVPANFPLIGYIGRFSRQKRPDVFLDVAKHLLGKLGEVYFYMAGDGDLLDKSKKLADSLGISNRVSFVAPRDDIHIVLNSTDMLVLTSSYEGAPLTILEALATGVPVVASDVGAISEYVGTPYVVQRQGRGAEVDQFAEAILRGLNDNYPSIFDREIFSLDYVADSYARVFYDTAVRTSTTQEN | not soluble |
| MGSDKIHHHHHHMFEKQFNHRTLETSLGPVEIEGPVTSQILATYKLDPGLTAFRQPAEQHEALVEIAALEEGRIIIARQGNDIIGYVTFLYPDPYETWSEGNNPYILELGAIEVAARFRGQQIGKKLLEVSMLDPAMEHYLILTTEYYWHWDLKGSGLSVWDYRKIMEKMMNHGGLVFFPTDDPEIASHPANCLMARIGKHVAPEVVAHFDALRLRRRFMYD | not soluble |
| MGSDKIHHHHHHMFFEGVEQLIEEILKLRKQGLSFRKIAQALNTTVGKVHYRYKKHEELQHQKGQAKPAAKGEWQLPGSYPVTEITLLPQGPTTLYAFWDTSEQTRGLVSYQTDKDWEQLEKRLRLYDVTSLLFDGRRANRYVDIHLPEMTNNWLIEHVEPNCTYLIDLGVITPSGAFLPVVRSTPIETPRQRNDQYNFRKEDVLDWQYGLSEEPKWLEHFSTYSYYEKTK | not soluble |
